The values below come from patent US10407662B2, “Method of culturing pluripotent stem cell, and polypeptide to be used therefor” (FUJIFILM Corporation, priority 2012, dated 2019).

In series [1] the test system is human iPS cells. In words: Cell Adhesiveness Evaluation 2 (synthetic peptide inhibition of cell adhesion to natural vitronectin). It is filed as cell-based. To be noted: 100 μM synthetic peptide. As to the method: Polypeptides listed in Table 7 were synthesized by Emoc solid phase synthesis. A surface to which natural vitronectin was adsorbed at a concentration of 130 pmol/m^2, and thereafter, a cell suspension to which 100 μM of the above-described synthetic peptide was added was seeded at a rate of 30,000 cells/well. The number of adherent cells after 24 h post seeding was calculated by the same technique as in <Cell Adhesiveness Evaluation 1>.

A short description of series [2]: Evaluation of adsorptivity to culture plate (OPA fluorescence). It is filed as physicochemical. To be noted: FIG. 1; for adsorptivity to a plate: 0 to 200 pmol/cm^2, 37° C. 2 hours, washed with PBS twice. As to the method: Each polypeptide obtained by the above-described method was diluted with a predetermined buffer so as to be added to wells at a predetermined final concentration of from 0 to 200 pmol/cm^2, and the resultant was aliquoted in 64 μL to a 96-well plate made of polystyrene and treated with plasma (Tissue Culture-Treated, Falcon). Each polypeptide was adsorbed to the plate by incubation at 37° C. for 2 hours, and was thereafter washed with PBS twice, to obtain a surface coated with each of the polypeptides of from RCP-1 to RCP-16.
To surfaces coated with RCP-1, and from RCP-11 to RCP-16 among the polypeptide-coated surfaces obtained as described above, 64 μL of each of boric acid buffer and 1 N NaOH was applied, and incubated at 80° C. and a humidity of 100% for 24 hours. After air-cooling, 75 μL of boric acid buffer was added to each well, and 50 μL of reaction liquid in which an OPA (o-phthalaldehyde: Wako Pure Chemical Industries, Ltd.)/methanol solution (160 mg/ml) and an NAC (N-acetyl-L-cysteine: Wako Pure Chemical industries, Ltd.)/boric acid buffer solution (2 mg/ml) were mixed at 1:100 (mass ratio) was further added. After incubation at 40° C. for 30 minutes, the fluorescence intensity thereof was measured (excitation of 355 nm/fluorescence of 486 nm) using an ENVISION MULTI-LABEL COUNTER (PerkinElmer Inc.). A calibration curve was separately made from each polypeptide solution, to calculate an amount of adsorption. In FIG. 1, a black rhombus, a black tetragon, a black triangle, a black circle, a white rhombus, a white tetragon, and a white triangle represent RCP-1, RCP-11, RCP-12, RCP-13, RCP-14, RCP-15, and RCP-16, respectively.

Series [3] concerns human iPS cells. In words: Proliferation Evaluation of iPS cells on polypeptide-coated plate. The settings on record: addition amount 20 μg/cm^2; 5000 cells/well. It is filed as cell-based. As to the method: The iPS cells collected in the same manner as in <Cell Adhesiveness Evaluation 1>described above were seeded on a 96-well plate, to which RCP-1, RCP-11, and the natural human vitronectin were adsorbed, at a rate of 250 cells/well, and were cultured in a 5% CO2 incubator at 37° C. for 8 days. The number of adherent cells after each lapse of time was measured by the same method as in <Cell Adhesiveness Evaluation 1> described above, to obtain proliferation curves, The proliferation curves were indicated in FIG. 2. In FIG. 2, a black rhombus represents an example in which RCP-1 was used, while a black tetragon represents an example in which RCP-11 was used.
Similarly, each of samples from […] was prepared so as to have an addition concentration listed in Table 8 with each of from RCP-1 to RCP-10, and RCP-17, and Human Recombinant Laminin-511 as a reference, was seeded on a 96-well plate, to which each polypeptide was adsorbed, at a rate of 5000 cells/well in the same manner as in<Cell Adhesiveness Evaluation 1> described above, and was cultured in a CO2 incubator at 37° C. for 3 days. The number of cells after the 3 days was measured by the same method as in <Cell Adhesiveness Evaluation 1> described above.

The nature of series [4]: Presence or absence of aggregation after dialysis. The settings on record: after stepwise dialysis removing urea. The class given is physicochemical. As to the method: For from RCP-1 to RCP-10, and RCP-17, each polypeptide solution after the purification was dialyzed using a SLIDE-A-LIZER (3.5K MWCO). A dialysis external liquid was based on a dialysis buffer (PBS, 1.5 M NaCl, 0.5 M L-arginine, 1 mM EDTA, pH 7.4), and urea was removed by stepwise dialysis. The concentration of an end dialysis product was calculated at an absorbance of 280 nm using a NANODROP (Thremo Fisher Scientific Inc.).
In addition, the presence or absence of aggregation was evaluated by G, A, and B below.
G: Formation of an aggregate is not observed.
A: Formation of particles having a particle diameter of around 100 nm is observed.
B: Formation of visible aggregation with a particle diameter of 1 mm or more is observed.

Consider EGFNVDKKCQCDELCSYYQS [Peptide-3], for which, in the series with human iPS cells [1], the “inhibition of cell adhesion to natural vitronectin (in words)” value (“inhibition of cell adhesion” for short) is “adhesion inhibition did not occur”.

As to KGRCTEGFNVDKKCQCDELC [Peptide-2], in the series with human iPS cells [1], the “inhibition of cell adhesion” value is recorded as “adhesion inhibition did not occur”. For the molecule “RCP-14: comparative recombinant polypeptide, GPLG + human vitronectin positions 1-55 (GPLGDQESCKGRCTEGFNVDKKCQCDELCSYYQSCCTDYTAECKPQVTRGDVFTMPEDE; Synthetic Peptide RCP-14) [reference compound]”, in series [2], the “adsorption amount relative to that of the polypeptide containing SEQ ID NO:2” value was “¼” and the “adsorptivity to a plate” value was “inadequate as an adsorbent to a culture plate”. For TAECKPQVTRGDVFTMPEDE [Peptide-6], the “inhibition of cell adhesion” value in the series with human iPS cells [1] is “significantly inhibited”. As for “TAECKPQVTRGEVGTMPEDE (TAECKPQVTRGEVFTMPEDE) [Peptide-8]”, the “inhibition of cell adhesion” value in the series on human iPS cells [1] is listed as “adhesion inhibition did not occur”.

B1: RCP-13: comparative recombinant polypeptide, GPLG + human vitronectin positions 1-55, 56-129 (protein)
chain: GPLGDQESCKGRCTEGFNVDKKCQCDELCSYYQSCCTDYTAECKPQVTRGDVFTMPEDEYTVYDDGEEKNNATVHEQVGGPSLTSDLQAQSKGNPEQTPVLKPEEEAPAPEVGASKPEGIDSRPETLHPGRPQP
modifications: Synthetic Peptide RCP-13
As for B1, in series [2], the “adsorption amount relative to that of the polypeptide containing SEQ ID NO:2” value was “¼” and the “adsorptivity to a plate” value was “inadequate as an adsorbent to a culture plate”.

B2: RCP-16: comparative recombinant polypeptide, GPLG + human vitronectin positions 269-459 (protein)
chain: GPLGPSQEECEGSSLSAVFEHFAMMQRDSWEDIFELLFWGRTSAGTRQPQFISRDWHGVPGQVDAAMAGRIYISGMAPRPSLAKKQRFRHRNRKGYRSQRGHSRGRNQNSRRPSRATWLSLFSSEESNLGANNYDDYRMDWLVPATCEPIQSVFFFSGDKYYRVNLRTRRVDTVDPPYPRSIAQYWLGCPAPGHL
modifications: Synthetic Peptide RCP-16
As for B2, the “adsorptivity to a plate” value in series [2] is on record as “favorable adsorptivity to a plate, equivalent to that of RCP-11”.

B3: RCP-15: comparative recombinant polypeptide, GPLG + human vitronectin positions 56-459 (protein)
chain: GPLGYTVYDDGEEKNNATVHEQVGGPSLTSDLQAQSKGNPEQTPVLKPEEEAPAPEVGASKPEGIDSRPETLHPGRPQPPAEEELCSGKPFDAFTDLKNGSLFAFRGQYCYELDEKAVRPGYPKLIRDVWGIEGPIDAAFTRINCQGKTYLFKGSQYWRFEDGVLDPDYPRNISDGFDGIPDNVDAALALPAHSYSGRERVYFFKGKQYWEYQFQHQPSQEECEGSSLSAVFEHFAMMQRDSWEDIFELLFWGRTSAGTRQPQFISRDWHGVPGQVDAAMAGRIYISGMAPRPSLAKKQRFRHRNRKGYRSQRGHSRGRNQNSRRPSRATWLSLFSSEESNLGANNYDDYRMDWLVPATCEPIQSVFFFSGDKYYRVNLRTRRVDTVDPPYPRSIAQYWLGCPAPGHL
modifications: Synthetic Peptide RCP-15
Consider B3, for which the “adsorptivity to a plate” value in series [2] is “favorable adsorptivity to a plate, equivalent to that of RCP-11”.

B4: RCP-10: recombinant polypeptide, Met + human vitronectin positions 1-55, 269-373, 374-399, C274S (protein)
chain: MDQESCKGRCTEGFNVDKKCQCDELCSYYQSCCTDYTAECKPQVTRGDVFTMPEDESQEESEGSSLSAVFEHFAMMQRDSWEDIFELLFWGRTSAGTRQPQFISRDWHGVPGQVDAAMAGRIYISGMAPRPSLAKKQRFRHRNRKGYRSQRGHSRGRNQNSRRPSRATWLSLFSSEESNLGANNYD
modifications: Synthetic Peptide RCP-10
notes: recombinant polypeptide, Met + human vitronectin positions 1-55, 269-373, 374-399, C274S
Turning to B4, in the series with human iPS cells [3], the “The Number (%) of Cells after 3 Days” value stood at 101.9%. Besides, the Aggregation entry in series [4] is “B (Formation of visible aggregation with a particle diameter of 1 mm or more is observed.)”.

B5: RCP-9: recombinant polypeptide, Met + human vitronectin positions 1-55, 269-373, 374-389, C274S (protein)
chain: MDQESCKGRCTEGFNVDKKCQCDELCSYYQSCCTDYTAECKPQVTRGDVFTMPEDESQEESEGSSLSAVFEHFAMMQRDSWEDIFELLFWGRTSAGTRQPQFISRDWHGVPGQVDAAMAGRIYISGMAPRPSLAKKQRFRHRNRKGYRSQRGHSRGRNQNSRRPSRATWLSLFSSE
modifications: Synthetic Peptide RCP-9
notes: recombinant polypeptide, Met + human vitronectin positions 1-55, 269-373, 374-389, C274S
For the molecule B5, the “The Number (%) of Cells after 3 Days” value in the series with human iPS cells [3] worked out at 105.8%. Further, the Aggregation entry in series [4] is reported as “B (Formation of visible aggregation with a particle diameter of 1 mm or more is observed.)”.
